The text below walks through data of patent US20180355396, “Biosensors for Organic and Inorganic Arsenic” (THE FLORIDA INTERNATIONAL UNIVERSITY BOARD OF TRUSTEES, published 2018).

The data set addresses T1, AfArsR C102S (Acidithiobacillus ferrooxidans, UniProt B7J952 B7J952:1-118, C102S).
T1 sequence: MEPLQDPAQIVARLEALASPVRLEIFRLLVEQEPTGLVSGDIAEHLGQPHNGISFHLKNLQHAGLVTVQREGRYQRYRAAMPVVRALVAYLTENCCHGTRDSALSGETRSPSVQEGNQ
The data set can be described thus: FP; anisotropy; complex little affected by As(III) up to 40 uM, dissociated by MAs(III), Rox(III), PhAs(III); same buffer. The note with it: tags: C-terminal His tag (pBADarsR, E. coli Top10); chain copies: 2 (homodimer, inferred); label: 5'-6-FAM.

B1: ars operator/promoter 30-mer (arsO) (dsDNA)
DNA 1: ATCCACGAATATTTCTTGCAGTATTGACAA
DNA 2: TTGTCAATACTGCAAGAAATATTCGTGGAT
As to B1, the binding result is on record as “binds”.
